{"source": "patent US9193965B2", "about": "“Acetolactate synthase having 2-ketoisovalerate decarboxylase activity and uses thereof” (The Regents of the University of California, priority 2010, dated 2015)", "proteins": {"B1": {"name": "Bacillus subtilis acetolactate synthase AlsS, wild type (Q at residue 487), SEQ ID NO: 2 (Bacillus subtilis subsp. subtilis str. 168) (protein)", "chain": "VLTKATKEQKSLVKNRGAELVVDCLVEQGVTHVFGIPGAKIDAVFDALQDKGPEIIVARHEQNAAFMAQAVGRLTGKPGVVLVTSGPGASNLATGLLTANTEGDPVVALAGNVIRADRLKRTHQSLDNAALFQPITKYSVEVQDVKNIPEAVTNAFRIASAGQAGAAFVSFPQDVVNEVTNTKNVRAVAAPKLGPAADDAISAAIAKIQTAKLPVVLVGMKGGRPEAIKAVRKLLKKVQLPFVETYQAAGTLSRDLEDQYFGRIGLFRNQPGDLLLEQADVVLTIGYDPIEYDPKFWNINGDRTIIHLDEIIADIDHAYQPDLELIGDIPSTINHIEHDAVKVEFAEREQKILSDLKQYMHEGEQVPADWKSDRAHPLEIVKELRNAVDDHVTVTCDIGSHAIWMSRYFRSYEPLTLMISNGMQTLGVALPWAIGASLVKPGEKVVSVSGDGGFLFSAMELETAVRLKAPIVHIVWNDSTYDMVAFQQLKKYNRTSAVDFGNIDIVKYAESFGATGLRVESPDQLADVLRQGMNAEGPVIIDVPVDYSDNINLASDKLPKEFGELMKTKAL"}, "B2": {"name": "Bacillus subtilis acetolactate synthase AlsS variant Q487G (Bacillus subtilis subsp. subtilis str. 168; Q486G) (protein)", "chain": "B1 chain with Q487G"}, "B3": {"name": "Bacillus subtilis acetolactate synthase AlsS variant Q487A, SEQ ID NO: 10 (Bacillus subtilis subsp. subtilis str. 168; Q486A) (protein)", "chain": "B1 chain with Q487A"}, "B4": {"name": "Bacillus subtilis acetolactate synthase AlsS variant Q487S (Bacillus subtilis subsp. subtilis str. 168; Q486S) (protein)", "chain": "B1 chain with Q487S"}}, "substrate": "CC(=O)C(=O)O", "assay": "purified protein, by the assay type", "conditions": "pH 7.0, 37° C., 0.1 mM TPP, ± standard deviation", "note": "Numbering of substitutions follows the chain as printed. Names and notes keep the numbering of the source.", "protocol": "The wild type AlsS and AlsS variants were synthesized from a His-tag plasmid in E. coli strain BL21 Star™ (DE3) (Invitrogen (Carlsbad, Calif.)) followed by purification with Ni-nitrilotriacetic acid (NTA) spin columns (Qiagen (Valencia, Calif.)). Protein concentrations were determined by the Bradford assay (Bio-Rad (Hercules, Calif.)).\nAls enzyme activity. An enzyme assay for Als activity of AlsS was carried out in 1 ml of morpholinepropanesulfonic acid (MOPS) buffer (pH 7.0) containing 80 nM AlsS, 100 mM MOPS (pH 7.0), 1 mM MgCl2, 0.1 mM TPP, 10 mM acetate, and various concentrations of pyruvate at 37° C. for 10 min. The reaction was terminated by acidification of the solution with 0.1 ml of 50% H2SO4. The mixture was incubated for an additional 25 min at 37° C. to allow for the acid hydrolysis of the acetolactate to acetoin. […] One unit of enzyme activity was defined as the amount of enzyme that converts 1 μmol of substrate into product in 1 minute under these conditions. The Km values for pyruvate and the Vmax were extrapolated after nonlinear regression of the experimental points with the Gauss-Newton method using Matlab.", "data": [{"protein": "B1", "values": [{"measurement": "Km", "setting": "other: wild type", "result": "13.6 ± 0.8", "unit": "mM"}, {"measurement": "kcat", "setting": "other: wild type", "result": "121 ± 13", "unit": "s⁻¹"}]}, {"protein": "B2", "values": [{"measurement": "Km", "setting": "other: Q487G", "result": "1.6 ± 0.4", "unit": "mM"}, {"measurement": "kcat", "setting": "other: Q487G", "result": "11 ± 5", "unit": "s⁻¹"}]}, {"protein": "B3", "values": [{"measurement": "Km", "setting": "other: Q487A", "result": "8.7 ± 0.5", "unit": "mM"}, {"measurement": "kcat", "setting": "other: Q487A", "result": "58 ± 8", "unit": "s⁻¹"}]}, {"protein": "B4", "values": [{"measurement": "Km", "setting": "other: Q487S", "result": "1.1 ± 0.6", "unit": "mM"}, {"measurement": "kcat", "setting": "other: Q487S", "result": "11 ± 6", "unit": "s⁻¹"}]}]}
